Measured values as given in patent US20230265215A1 (OMEROS, published 2023).

Target: T1, C1r (human, UniProt P00736 18-705, limits assumed)
T1 construct: Species read from 'Recombinant human MASP-2 or C1r, C1s, CFD, MASP-1 and MASP-3'
T1 sequence (looked up): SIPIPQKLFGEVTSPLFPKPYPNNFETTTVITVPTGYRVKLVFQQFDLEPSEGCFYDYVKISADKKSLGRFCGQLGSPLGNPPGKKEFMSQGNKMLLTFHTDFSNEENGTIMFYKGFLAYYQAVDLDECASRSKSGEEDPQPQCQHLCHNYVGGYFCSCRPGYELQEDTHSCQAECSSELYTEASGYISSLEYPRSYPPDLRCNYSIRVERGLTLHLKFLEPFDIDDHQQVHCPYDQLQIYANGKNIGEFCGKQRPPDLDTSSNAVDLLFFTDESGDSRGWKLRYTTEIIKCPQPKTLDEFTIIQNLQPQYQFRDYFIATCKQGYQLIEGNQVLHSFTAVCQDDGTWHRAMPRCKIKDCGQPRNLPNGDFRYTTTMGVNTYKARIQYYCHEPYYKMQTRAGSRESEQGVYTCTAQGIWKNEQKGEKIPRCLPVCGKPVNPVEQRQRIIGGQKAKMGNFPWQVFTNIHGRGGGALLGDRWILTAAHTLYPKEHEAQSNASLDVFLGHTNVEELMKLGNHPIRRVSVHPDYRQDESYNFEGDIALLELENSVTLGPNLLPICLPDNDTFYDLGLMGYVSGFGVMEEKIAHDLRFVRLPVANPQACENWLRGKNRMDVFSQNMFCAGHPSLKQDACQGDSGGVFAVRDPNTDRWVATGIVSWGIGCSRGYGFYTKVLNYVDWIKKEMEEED
Experiment: solid phase ELISA, immobilized protease, mean apparent KD of two lots
Text: The apparent dissociation constant (KD) was estimated by nonlinear regression using a 4-parameter logistic model.
Fold selectivity calculated as KD(related serine protease)/mean KD(MASP-2).

B1: mAb OMS858 (humanized anti-MASP-2 antibody) (antibody, V domains shown)
VH: QVQLVQSGAEVKKPGASVKVSCKASGYTFTNHHMHWLRQAPGQGLEWIGDIDASDSETHYIEKFKDRATLTIDKSSSTAYMELSSLRSEDTAVYYCARGDITTTLRYFDVWGQGTLVTVSS
VL: DIQLTQSPSSLSASVGDRVTITCSASSSVRYMYWYQQKPGKAPKLLIYDTSNLASGVPSRFSGSGSGTDNTLTISSLQPEDFATYYCQQWSSYPLTFGQGTKVEIKR
notes: also called antibody OMS858; biotinylated OMS858
B1 was tested, and the Kd was over 100 µg/mL.
